PMC2483945, “Structure of the Head of the Bartonella Adhesin BadA” (PLoS Pathogens, 2008)

Key:
[1] = biological target: BadA head fragment after trypsin treatment (protease-resistant fragment of approx. 14 kDa) (Bartonella henselae); experiment: not stated; fragments of approx. 14 kDa after trypsin or chymotrypsin treatment (10 min, room temperature, 20 mM MOPS/KOH pH 7.2, 150 mM NaCl); how the trimers were shown is not told
[2] = biological target: BadA head fragment after chymotrypsin treatment (protease-resistant fragment of approx. 14 kDa) (Bartonella henselae); experiment: as above
[3] = biological target: the molecule itself; experiment: SEC-MALS; calibrated analytical S200 column (GE Healthcare) coupled to a MiniDAWN Tristar static light scattering detector; data not shown

In the case of “BadA head fragment after trypsin treatment (protease-resistant fragment of approx. 14 kDa) (domain or fragment)”, the stoichiometry N [1] is reported as 3.

Work on “BadA head fragment after chymotrypsin treatment (protease-resistant fragment of approx. 14 kDa) (domain or fragment)” yielded a stoichiometry N [2] of 3.

B1: BadA head fragment (Trp-ring domain, GIN domain, neck and first stalk segment; residues 375 to 536) (domain or fragment)
chain: KALRGMISEKGGWNLTVNNDNNTVVSSGGALDLSSGSKNLKIVKDGKKNNVTFDVARDLTLKSIKLDGVTLNETGLFIANGPQITASGINAGSQKITGVAEGTDANDAVNFGQLKKIETEVKEQVAASGFVKQDSDTKYLTIGKDTDGDTINIANNKSDKRT
notes: Residues 385-498 are resolved in the crystal; also called BadA construct; BadA fragment; source: recombinantly expressed, purified as described [11]
With B1 the “stoichiometry N” value [3] was 3.
